Results published in the Immune Epitope Database (IEDB).

Key:
Experiment in all cases: IEDB peptide-MHC binding, purified MHC/competitive/radioactivity; filed as Kd, often an IC50 or EC50 that approximates it; ≥ and ≤ were set here for values at or beyond the usual limits of such assays
[1] = target: HLA-A*02:03
[2] = target: HLA-A*02:02
[3] = target: HLA-A*02:06
[4] = target: HLA-A*11:01
[5] = target: HLA-A*68:01
[6] = target: HLA-A*33:01
[7] = target: HLA-A*03:01
[8] = target: HLA-A*31:01
[9] = source organism: Vaccinia virus WR
[10] = source organism: Dengue virus 2 Jamaica/1409/1983
[11] = source organism: SARS coronavirus Tor2
[12] = source organism: Dengue virus 2 16681-PDK53
[13] = source organism: Mammarenavirus whitewaterense
[14] = source organism: Human immunodeficiency virus type 1 BH10

AAIDRQVSV was tested, and the Kd [1, 9] was 18.6 nM, the Kd [2, 9] was 933 nM and the Kd [3, 9] was 14.9 nM.
Sequence AIMAVGMVSI has a Kd [1, 10] of 58 nM.
AMHDKKIDI was tested, and the Kd [1, 9] was 1520 nM, the Kd [2, 9] was 17200 nM and the Kd [3, 9] was at least 42000 nM.
With ATLNTLITLI the Kd [1, 9] was 27.9 nM, the Kd [2, 9] was 31.5 nM and the Kd [3, 9] was 198 nM.
CIVQSVLRDI gave a Kd [1, 9] of 158 nM, a Kd [2, 9] of 218 nM and a Kd [3, 9] of 849 nM.
Sequence DAKRNSKSLV has a Kd [1, 9] of 2870 nM, a Kd [2, 9] of 13300 nM and a Kd [3, 9] of at least 52100 nM.
With DINVIGLIV the Kd [1, 9] was 4050 nM, the Kd [2, 9] was 9800 nM and the Kd [3, 9] was 5530 nM.
In the case of DLMSSKDDV, the Kd ([3]; source organism: Homo sapiens) is reported as at least 132000 nM.
In the case of DTDIVNNFIT, the Kd [1, 9] is reported as 5590 nM, the Kd [2, 9] is reported as 8590 nM and the Kd [3, 9] is reported as 2310 nM.
Work on FLITGVFDI yielded a Kd [1, 11] of 0.765 nM, a Kd [2, 11] of 0.686 nM and a Kd [3, 11] of 1.48 nM.
FLIVAALVFL was tested, and the Kd [1, 11] was 162 nM, the Kd [2, 11] was 3.02 nM and the Kd [3, 11] was 3.64 nM.
FTSDYPFYV gave a Kd [1, 9] of 3.91 nM, a Kd [2, 9] of 2.07 nM and a Kd [3, 9] of 3.58 nM.
FTYASALWEI gave a Kd [1, 11] of 6.05 nM, a Kd [2, 11] of 1.6 nM and a Kd [3, 11] of 2.54 nM.
Work on FVKKMLPKII yielded a Kd [1, 9] of 1140 nM, a Kd [2, 9] of 11100 nM and a Kd [3, 9] of 6710 nM.
With GLSQRHEEKV the Kd ([3]; source organism: Homo sapiens) was at least 53800 nM.
HTKFWISDNT was tested, and the Kd [1, 9] was at least 60200 nM, the Kd [2, 9] was at least 21500 nM and the Kd [3, 9] was at least 69800 nM.
For ILNPYMPSVV, the Kd ([1]; source organism: Dengue virus 1 Brazil/97-11/1997) was 3.26 nM.
ILRNYLRLYI gave a Kd [1, 9] of 0.895 nM, a Kd [2, 9] of 0.394 nM and a Kd [3, 9] of 65 nM.
For IQYRQQLELA, the Kd [1, 9] was 8470 nM, the Kd [2, 9] was 4320 nM and the Kd [3, 9] was at least 69800 nM.
For ITNILGGVL, the Kd [1, 9] was 2440 nM, the Kd [2, 9] was 7380 nM and the Kd [3, 9] was at least 32400 nM.
With ITPNNLNKI the Kd [1, 9] was 876 nM, the Kd [2, 9] was 14600 nM and the Kd [3, 9] was 409 nM.
With IVAAVIIMAI the Kd [1, 9] was 2610 nM, the Kd [2, 9] was 727 nM and the Kd [3, 9] was 4510 nM.
For IVDKFGKNHI, the Kd [1, 9] was 5080 nM, the Kd [2, 9] was 2930 nM and the Kd [3, 9] was 8330 nM.
With IVTFINDYA the Kd [1, 9] was 2960 nM, the Kd [2, 9] was 140 nM and the Kd [3, 9] was 1150 nM.
KLTLKGMSYV was tested, and the Kd ([1]; source organism: Dengue virus 1 Singapore/S275/1990) was 53.4 nM.
KVSCTILAV showed a Kd [1, 12] of 57.7 nM and a Kd [3, 12] of 18.2 nM.
With LLATVTGGI the Kd [1, 10] was 3.59 nM.
LMMATIGIA showed a Kd [1, 10] of 0.49 nM.
In the case of NQLTYVVIAI, the Kd [3, 10] is reported as 23.6 nM.
PLPNFSSLNL was tested, and the Kd ([3]; source organism: Homo sapiens) was at least 56600 nM.
For PLPVSRLVSL, the Kd ([1]; source organism: Homo sapiens) was 16700 nM.
Sequence QISRVNDLNR has a Kd [4, 9] of 335 nM, a Kd [5, 9] of 88 nM and a Kd [6, 9] of 913 nM. It also gave a Kd [7, 9] of 1940 nM and a Kd [8, 9] of 122 nM.
RFVKFNDYR was tested, and the Kd [4, 9] was 14800 nM, the Kd [5, 9] was 38.2 nM and the Kd [6, 9] was 237 nM. It also gave a Kd [7, 9] of 19800 nM and a Kd [8, 9] of at most 1 nM.
For RLGLVLDDY, the Kd [4, 9] was 3560 nM, the Kd [5, 9] was at least 44500 nM and the Kd [6, 9] was at least 77700 nM. It also gave a Kd [7, 9] of 11.1 nM and a Kd [8, 9] of at least 77900 nM.
Sequence RVVVQIDPEY has a Kd [4, 9] of at least 23400 nM, a Kd [5, 9] of 1190 nM and a Kd [6, 9] of at least 70000 nM. The Kd [7, 9] was 14200 nM and the Kd [8, 9] was at least 70000 nM.
SAEDNYLAK was tested, and the Kd [4, 9] was 56.1 nM, the Kd [5, 9] was 11400 nM and the Kd [6, 9] was at least 77700 nM. For the same sequence, the Kd [7, 9] was at least 26300 nM and the Kd [8, 9] was at least 53500 nM.
Work on SAGFSLWIYK yielded a Kd [4, 11] of 0.0935 nM, a Kd [5, 11] of 31.1 nM and a Kd [6, 11] of 3430 nM. The Kd [7, 11] was 75.3 nM and the Kd [8, 11] was 52.1 nM.
With SCSYKIGHH the Kd [4, 13] was at least 64800 nM, the Kd [5, 13] was at least 77600 nM and the Kd [6, 13] was at least 77700 nM. For the same sequence, the Kd [7, 13] was at least 78000 nM and the Kd [8, 13] was at least 45800 nM.
For SFKSINKVY, the Kd [4, 9] was 2770 nM, the Kd [5, 9] was 6900 nM and the Kd [6, 9] was at least 77700 nM. For the same sequence, the Kd [7, 9] was 1830 nM and the Kd [8, 9] was 2130 nM.
SIMETIDPVY showed a Kd [4, 9] of 4.36 nM, a Kd [5, 9] of 29 nM and a Kd [6, 9] of at least 36600 nM. For the same sequence, the Kd [7, 9] was 222 nM and the Kd [8, 9] was 9760 nM.
Sequence SINSEYIESK has a Kd [4, 9] of 55.4 nM, a Kd [5, 9] of 2580 nM and a Kd [6, 9] of at least 70000 nM. For the same sequence, the Kd [7, 9] was 7720 nM and the Kd [8, 9] was at least 70000 nM.
SLGKAVHQV gave a Kd ([1]; source organism: Dengue virus 4 Philippines/H241/1956) of 14.6 nM.
In the case of SLLNATDIAV, the Kd [1, 14] is reported as 530 nM and the Kd [3, 14] is reported as 16.6 nM.
For SLVKKNKKR, the Kd [4, 9] was at least 77900 nM, the Kd [5, 9] was at least 77700 nM and the Kd [6, 9] was at least 77700 nM. The Kd [7, 9] was at least 78000 nM and the Kd [8, 9] was at least 77900 nM.
Work on SMDVLAEKK yielded a Kd [4, 9] of 25.7 nM, a Kd [5, 9] of 1270 nM and a Kd [6, 9] of at least 77700 nM. The Kd [7, 9] was 911 nM and the Kd [8, 9] was at least 22600 nM.
